The text below walks through data of publication PMC8979966.

First the molecules themselves.
B1: TCR 868 CDR3-alpha fragment GAHDYALN, as printed (the 868 form used here; an outside source, not checked, gives natural 868 a different CDR3-alpha) (parent)
chain: GAHDYALN

The variants in the test derive from B1. As to the kind of experiment: YAMTAD yeast mating, deep sequencing; 2 biological x 4 technical repeats. The note with it: with SL9 ([…]) on HLA-A*02:01, single chain; S. cerevisiae mating; SL9 group vs negative-control group; higher = more enriched with SL9 than with the negative controls; the paper calls a variant enriched at SL9/NC > 1 and P < 0.05; unresolved parent; not an affinity; keep out of graded; scale: ratio 'SL9/NC': mean frequency in the SL9-HLA-A*02:01 group / mean frequency in the sheet's 'NC' group, each normalised …; numbering: sequential-on-construct, sequence starts at 1.
Take LAHDYALN: the screen value came to 1.21. For the variant GACDYALN, the screen value came to 1.13. The figure for GLHDYALN is 1.06.
